Data reported in patent publication US20240076403A1 (SIMCERE ZAIMING PHARMACEUTICAL, published 2024).

B1: Tab050 (2C4 human IgG1, Pertuzumab) (antibody, V domains shown)
VH: EVQLVESGGGLVQPGGSLRLSCAASGFTFTDYTMDWVRQAPGKGLEWVADVNPNSGGSIYNQRFKGRFTLSVDRSKNTLYLQMNSLRAEDTAVYYCARNLGPSFYFDYWGQGTLVTVSS
VL: DIQMTQSPSSLSASVGDRVTITCKASQDVSIGVAWYQQKPGKAPKLLIYSASYRYTGVPSRFSGSGSGTDFTLTISSLQPEDFATYYCQQYYIYPYTFGQGTKVEIKR
notes: control antibody, human IgG1
B2: Tab048 (FRP5 human IgG1) (antibody, V domains shown)
VH: QVQLQQSGPELKKPGETVKISCKASGYPFTNYGMNWVKQAPGQGLKWMGWINTSTGESTFADDFKGRFDFSLETSANTAYLQINNLKSEDMATYFCARWEVYHGYVPYWGQGTTVTVSS
VL: DIQLTQSHKFLSTSVGDRVSITCKASQDVYNAVAWYQQKPGQSPKLLIYSASSRYTGVPSRFTGSGSGPDFTFTISSVQAEDLAVYFCQQHFRTPFTFGSGTKLEIKR
notes: control antibody, human IgG1
B3: Tab048 (FRP5 human IgG1) (antibody, V domains shown)
VH: QVQLQQSGPELKKPGETVKISCKASGYPFTNYGMNWVKQAPGQGLKWMGWINTSTGESTFADDFKGRFDFSLETSANTAYLQINNLKSEDMATYFCARWEVYHGYVPYWGQGTTVTVSS
VL: DIQLTQSHKFLSTSVGDRVSITCKASQDVYNAVAWYQQKPGQSPKLLIYSASSRYTGVPSRFTGSGSGPDFTFTISSVQAEDLAVYFCQQHFRTPFTFGSGTKLEIKR
notes: Control antibody in human IgG1 form

Columns and labels:
[1] = target: T1, monkey HER2-His protein (Sino Biological, Cat. No. 90295-C08H) (monkey); experiment: ELISA, 100 nM
T1 construct: also called monkey HER2 protein

[2] = target: T1, monkey HER2-His protein (Sino …); experiment: ELISA, 0.1 nM
[3] = target: T1, monkey HER2-His protein (Sino …); experiment: ELISA, 1 nM
[4] = target: T1, monkey HER2-His protein (Sino …); experiment: ELISA, 0.0001 nM
[5] = target: T1, monkey HER2-His protein (Sino …); experiment: ELISA, 0.00001 nM
[6] = target: T1, monkey HER2-His protein (Sino …); experiment: ELISA, 10 nM
[7] = target: T1, monkey HER2-His protein (Sino …); experiment: ELISA, 0.001 nM
[8] = target: T1, monkey HER2-His protein (Sino …); experiment: ELISA, 0.01 nM
monkey HER2-His protein = target: T2, monkey HER2-His protein (monkey); experiment: SPR, antibody captured on Protein A chip, monkey HER2-His analyte, 1:1 model
T2 construct: Bought protein; also called monkey HER2 protein

[9] = target: T3, recombinant human HER2-His protein (human, UniProt P04626 23-652, limits assumed); experiment: SPR, antibody captured on Protein A chip, human HER2-His analyte, 1:1 model
T3 construct: also called human HER2 protein; not shown: His tag
Protocol: The sample and running buffer were HBS-EP+ (10 mM HEPES, 150 mM NaCl, 3 mM EDTA, 0.05% surfactant P20) (GE Healthcare; BR-1006-69). The flow cell was set at 25° C. The sample block was set at 16° C. Both were pretreated with the running buffer. In each cycle, first, the antibody to be tested was captured using the Protein A chip, and then a single concentration of HER2 antigen protein was injected. The association and dissociation processes of the antibody with the antigen protein were recorded, and finally, the chip was regenerated using Glycine pH 1.5 (GE Healthcare; BR-1003-54). The association was determined by injecting different concentrations of recombinant human HER2-His in the solution and maintaining for 240 s, wherein the flow rate was 30 μL/min, and the protein was diluted in a 1:1 dilution ratio from 200 nM (see detailed results for actual concentrations tested) to obtain 5 concentrations in total. The dissociation phase was monitored for up to 600 s and triggered by switching from the sample solution to the running buffer. The surface was regenerated by washing with 10 mM glycine solution (pH 1.5) at a flow rate of 30 μL/min for 30 s. The difference in bulk refractive index was corrected by subtracting the responses obtained from the goat anti-human Fc surface. Blank injections were also subtracted (=double referencing). To calculate the apparent KD and other kinetic parameters, the Langmuir 1:1 model was used.

Binder | OD450 [1] | OD450 [2] | OD450 [3] | OD450 [4] | OD450 [5] | OD450 [6] | OD450 [7] | OD450 [8] | Kd (monkey HER2-His protein) | koff (monkey HER2-His protein) | kon (monkey HER2-His protein) | Kd [9] | koff [9] | kon [9]
B1 | 2.42 | 1.11 | 2.04 | 0.06 | 0.05 | 2.15 | 0.06 | – | – | – | – | – | – | –
B2 | 2.35 | 1.83 | 2.24 | 0.05 | 0.05 | 2.04 | 0.11 | 0.52 | – | – | – | – | – | –
B3 | – | – | – | – | – | – | – | – | 0.617 nM | 0.000118 s⁻¹ | 191000 M⁻¹ s⁻¹ | 0.337 nM | 7.45e-05 s⁻¹ | 221000 M⁻¹ s⁻¹
